First the molecules themselves.
B1: HLA-G-0031 (antibody, V domains shown)
VH: QVKLMQSGAALVKPGTSVKMSCNASGYTFTDYWVSWVKQSHGKRLEWVGEISPNSGASNFDENFKDKATLTVDKSTSTAYMELSRLTSEDSAIYYCTRSSHGSFRWFAYWGQGTLVTVSS
VL: AIVLNQSPSSIVASQGEKVTITCRASSSVSSNHLHWYQQKPGAFPKFVIYSTSQRASGIPSRFSGSGSGTSYSFTISRVEAEDVATYYCQQGSSNPYTFGAGTKLELK
notes: Rat monoclonal antibody obtained from CD rats
B2: HLA-G-0039 (antibody, V domains shown)
VH: EVQLLESGGGLVQPGGSLRLSCAASGFTFSSYAMNWVRQAPGKGLEWVSVISGSGVSTYYADSVKGRFTISRDNSRNTLSLQMNSLRAEDTAVYYCAKDGSYNYGYGDYFDYWGQGTLVTVSS
VL: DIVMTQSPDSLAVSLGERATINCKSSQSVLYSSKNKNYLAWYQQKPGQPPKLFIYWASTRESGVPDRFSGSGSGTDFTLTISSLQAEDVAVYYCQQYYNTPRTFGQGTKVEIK
notes: Human antibody from humanized OmniRat (OMT) rats
B3: HLA-G-0041 (antibody, V domains shown)
VH: B2 VH with S31T, A33G, N35S, S54G, R76K, S80Y, S85R
VL: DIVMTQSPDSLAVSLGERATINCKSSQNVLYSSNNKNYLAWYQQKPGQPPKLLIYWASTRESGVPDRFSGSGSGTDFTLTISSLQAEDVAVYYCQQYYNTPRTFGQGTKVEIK
notes: as for B2
B4: HLA-G-0090 (antibody, V domains shown)
VH: QVQLQQSGPGLLKPSQTLSLTCAISGDSVSSNRAAWNWIRQSPSRGLEWLGRTYYRSKWYNDYAVSVQGRITLIPDTSKNQFSLRLNSVTPEDTAVYYCASVRAVAPFDYWGQGVLVTVSS
VL: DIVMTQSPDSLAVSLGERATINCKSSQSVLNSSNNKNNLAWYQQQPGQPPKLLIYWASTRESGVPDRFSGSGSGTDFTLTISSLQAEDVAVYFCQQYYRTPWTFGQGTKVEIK
notes: as for B2

These results are taken from US20250051455A1 (Hoffmann-La Roche, published 2025).

Where a chain is given by its changes, count along the chain named.

In the first test the target is T1, recombinant soluble human HLA-G β2M MHC class I complex, dimer (human).
T1 construct: Non-biotinylated; also called HLA-G Dimer; dimeric HLA-G
The test is described as follows: ELISA, HLA-G dimer coated at random on plate. Here is the method:
(§1) The above table summarizes the binding of different rat anti-human HLA-G monoclonal antibodies, derived from wt protein IMS. Shown are the relative EC50 values [ng/ml] of the respective binding to rec. wt monomeric, dimeric and trimeric HLA-G proteins as assessed by ELISA. The ELISA was set up by coating the biotinylated wt HLA-G antigen to strepdavidin plates. After incubation and washing steps, the respective antibodies were bound in a concentration range from 10-0 μg in 1:2 dilution steps. Detection of bound antibodies was carried out by anti-Fc-antibody-POD conjugates. EC50 values were determined from the resulting binding curves at the antibody concentrations generating the half-maximal signal. In case of the non-biotinylated HLA-G dimer and trimer antigens, immobilization was carried out by random coating on assay plates.
For orientation: In an ELISA, binding on a coated surface is turned into a signal by an enzyme label.
A word on the EC50: it is the concentration needed to bring the measured effect to its halfway point. Turning to B1, the EC50 stood at 1.87 nM.
As to B2, the EC50 was 4.1 nM.
In the case of B3, the EC50 is 5.31 nM.

For the next test, the target named is T2, recombinant soluble human HLA-G β2M MHC class I complex, trimer (human).
T2 construct: Non-biotinylated; also called HLA-G Trimer; trimeric HLA-G
The test can be described thus: competition ELISA, one antibody concentration; competitor coated ILT4-Fc. Here is the method: (§2) The ELISA was set up by coating the Fc tagged ILT2 and ILT4 respectively to Maxisorp microtiter plates. After incubation and washing steps, the respective antibodies were added at a concentration of 100 nM. Soluble His tagged monomeric, dimeric or trimeric HLA-G was added to the wells. After incubation and washing steps, detection of bound receptor was carried out by anti-His-antibody-POD conjugates.
(§3) The above tables summarize the blocking of interaction between rec. HLA-G proteins (monomer and oligomers) to its receptors ILT2 and ILT4 by the described HLAG antibodies at a concentration of 110 nM (*HLAG-0090 was tested at a concentration of 44 nM) as assessed by ELISA. Shown are the % inhibitions of the HLA-G/receptor interaction (for ILT2 and ILT4). The less pronounced ILT4 inhibition depends on the major β2M dependent interaction of this receptor.
B1: the “% inhibition of ILT4 binding” value amounted to 68%.
B2: the “% inhibition of ILT4 binding” value is -43%.
For the molecule B3, the “% inhibition of ILT4 binding” value was -39%.

The target of another test is T3, recombinant soluble human HLA-G β2M MHC class I complex, monomer (human).
T3 construct: His tagged; biotinylated where coated on streptavidin plates, non-biotinylated in SPR; also called HLA-G-0003; wt HLA-G (monomer)
The description is as above. Here is the method: as §2, §3
Consider B1, for which the “% inhibition of ILT4 binding” value amounted to 17%.
As for B2, the “% inhibition of ILT4 binding” value was -224%.
For B3, the “% inhibition of ILT4 binding” value is -184%.

A further test addresses T1, recombinant soluble human HLA-G β2M MHC …. Described as above. The procedure:
as §2, §3
For B1, the “% inhibition of ILT4 binding” value stood at 54%.
Same read-out and setting: the value for B2 was -105%; that for B3 was -113%.

A further test deals with human HLA-G expressed on cells (JEG3 natural; SKOV3 HLA-G+ and PA-TU-8902 HLA-G+ transfectants) (human). The test can be described thus: cell-based or functional assay.
For B4, the “% TNF release (restoration) by monocytes (different donor) co-cultured with JEG-3 wt cells, LPS; antibody 0.16 µg/ml” value was 198%; the “% TNF release (restoration) by monocytes (different donor) co-cultured with JEG-3 wt cells, LPS; antibody 0.63 µg/ml” value was 219%; the “% TNF release (restoration) by monocytes (different donor) co-cultured with JEG-3 wt cells, LPS; antibody 2.5 µg/ml” value was found to be 233%; the “% TNF release (restoration) by monocytes (different donor) co-cultured with JEG-3 wt cells, LPS; antibody 10 µg/ml” value worked out at 221%.
B1: the “% TNF release (restoration) by monocytes (different donor) co-cultured with JEG-3 wt cells, LPS; antibody 0.16 µg/ml” value was found to be 14%; the “% TNF release (restoration) by monocytes (different donor) co-cultured with JEG-3 wt cells, LPS; antibody 0.63 µg/ml” value came out at 44%; the “% TNF release (restoration) by monocytes (different donor) co-cultured with JEG-3 wt cells, LPS; antibody 2.5 µg/ml” value came out at 67%; the “% TNF release (restoration) by monocytes (different donor) co-cultured with JEG-3 wt cells, LPS; antibody 10 µg/ml” value was 74%.
On the same counts, the results for B3 are 44%, 66%, 59% and 40%.

A further test concerns the target T2, recombinant soluble human HLA-G β2M MHC …. The test is described as follows: competition ELISA, one antibody concentration; competitor coated ILT2-Fc. Here is the method: as §2, §3
For B1, the “% inhibition of ILT2 binding” value worked out at 100%.
Take B2: the “% inhibition of ILT2 binding” value came to 70%.
Turning to B3, the “% inhibition of ILT2 binding” value came out at 67%.

Another test concerns the target T3, recombinant soluble human HLA-G β2M MHC …. Described as above. The procedure:
as §2, §3
With B1, the “% inhibition of ILT2 binding” value was determined as 101%.
Consider B2, for which the “% inhibition of ILT2 binding” value was -450%.
The same measure, in the same setting: the value for B3 was -437%.

In another test the target is T1, recombinant soluble human HLA-G β2M MHC …. Described as above. Here is the method: as §2, §3
Take B1: the “% inhibition of ILT2 binding” value was found to be 99%.
Regarding B2, the “% inhibition of ILT2 binding” value came out at 25%.
Still for that read-out and setting: then B3, with 23%.

The next test addresses T3, recombinant soluble human HLA-G β2M MHC …. The test can be described thus: ELISA, biotinylated wt HLA-G monomer on streptavidin plate. The procedure:
(§4) Streptavidin coated plates (Nunc, MicroCoat #11974998001) were coated with 25 μl/well biotinylated human wt HLA-G at a concentration of 250 ng/ml and incubated at 4° C. overnight. After washing (3×90 μl/well with PBST-buffer) 25 μl anti-HLA-G samples (1:3 dilution in OSEP buffer) or reference antibody (G233, Thermo/Pierce #MA1-19449, 500 ng/ml) were added and incubated 1 h at RT. After washing (3×90 μl/well with PBST-buffer) 25 μl/well goat-anti-mouse H+L-POD (Biorad #170-6561, 1:2000 in OSEP) or donkey-anti-rabbit IgG POD (GE #NA9340V, 1:5000 in OSE) was added and incubated at RT for 1 h on shaker. For detection of rat IgGs a mixture of goat-anti-rat IgG1-POD (Bethyl #A110-106P), goat-anti-rat IgG2a-POD (Bethyl #A110-109P) and goat-anti-rat IgG2b-POD (Bethyl #A110-111P) 1:10000 in OSEP was added and incubated at RT for 1 h on shaker. After washing (6×90 μl/well with PBST-buffer) 25 μl/well TMB substrate (Roche, 11835033001) was added and incubated until OD 2-3. Measurement took place on a Tecan Safire 2 instrument at 370/492 nm.
as §1
For the molecule B1, the EC50 amounted to 7.19 nM.
Consider B2, for which the EC50 was 7.35 nM.
Still for that read-out and setting: the value for B3 was 4.95 nM.

The target is the same in the next test. Described as above. This is another data set of the same source. The procedure: as §4
The above table summarizes the binding of different rat anti-human HLA-G monoclonal antibodies, derived from wt protein IMS both of wt as well as OMT rats. Shown are the relative EC50 values [ng/ml] and maximal OD of the respective binding to rec. wt monomeric HLA-G protein or the socalled gegrafted HLA-G (HLA-A consensus sequence on HLA-G backbone) protein as assessed by ELISA. The ELISA was set up by coating the biotinylated wt HLA-G or consensus antigen to strepdavidin plates. After incubation and washing steps, the respective antibodies were bound in a concentration range from 10-0 μg in 1:2 dilution steps. Detection of bound antibodies was carried out by anti-Fc-antibody-POD conjugates. EC50 values were determined from the resulting binding curves at the antibody concentrations generating the half-maximal signal.
On to B4, for which the “Max. OD” value is 3.4 OD.
Take B1: the “Max. OD” value worked out at 1.6 OD.
Take B2: the “Max. OD” value was 1.4 OD.
On the same count and under the same terms, then B3, with 2.3 OD.
